In experiment [1] the target is T1, recombinant human G-CSF receptor (R&D systems 381-GR-050/CF) (human, UniProt Q99062 25-333).
T1 construct: granulocyte colony-stimulating factor receptor, human, recombinant; As recalled, this catalogue item is a soluble extracellular form of the receptor; also called rhG-CSFR; granulocyte colony-stimulating factor receptor; source: bought: R&D systems 381-GR-050/CF
T1 sequence: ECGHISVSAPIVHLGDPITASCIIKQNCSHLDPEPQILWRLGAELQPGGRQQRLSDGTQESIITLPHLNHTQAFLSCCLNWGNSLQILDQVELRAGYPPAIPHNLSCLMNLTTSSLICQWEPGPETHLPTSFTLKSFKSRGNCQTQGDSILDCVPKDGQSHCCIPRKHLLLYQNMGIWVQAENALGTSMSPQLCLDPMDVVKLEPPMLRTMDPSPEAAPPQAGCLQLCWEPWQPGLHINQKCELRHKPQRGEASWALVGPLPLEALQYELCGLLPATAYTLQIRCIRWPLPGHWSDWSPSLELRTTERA
Put plainly: SPR; Biacore X100, multi-cycle kinetics; G-CSFR immobilised on a CM5 chip by amine coupling; analytes in 10 mM HEPES pH 7.4, 150 mM NaCl, 3.4 mM EDTA, 0.005% Tween-20; 25°C, 30 uL/min; 1:1 model, ka and kd from a linear fit of kobs against concentration. Particulars: both partners purified. (Surface plasmon resonance follows binding to a sensor surface in real time, without labels.)

Experiment [2] has as its target T1, recombinant human G-CSF receptor (R&D …). The experiment is described as above. As to conditions: both partners purified. This is another data set of the same source.

One may read the Kd as the concentration at which binding is half-saturated. By koff is commonly meant the first-order rate constant of dissociation. Broadly, the kon is a measure of how fast the partners come together.

B1: recombinant human granulocyte colony-stimulating factor (USP RS Filgrastim) (ligand, UniProt P09919-2 31-204, looked up)
chain: TPLGPASSLPQSFLLKCLEQVRKIQGDGAALQEKLCATYKLCHPEELVLLGHSLGIPWAPLSSCPSQALQLAGCLSQLHSGLFLYQGLLQALEGISPELGPTLDTLQLDVADFATTIWQQMEELGMAPALQPTQGAMPAFASAFQRRAGGVLVASHLQSFLEVSYRVLRHLAQP
notes: granulocyte colony-stimulating factor, human, as filgrastim; printed size 19 kDa; The SPR methods name filgrastim; also called rhG-CSF; G-CSF; source: bought: USP RS Filgrastim, Sigma-Aldrich 1270435
In the case of B1, the Kd in experiment [1] was found to be 1.4 nM. Besides, in experiment [2], the Kd is 1.1 nM, the koff worked out at 0.00049 s⁻¹ and the kon is 300000 M⁻¹ s⁻¹.
